Data set [1] concerns the molecule itself. Put plainly: STEM mass measurement.
Data set [2] concerns the molecule itself. The data set can be described thus: AUC.

Results on one protein are retold here after publication PMC4587294 (Nanomedicine, 2015).

Values joined by “and” are separate entries in the source; they are usually repeats but may differ in a detail not shown here. Equal values may be shown once.

What is called stoichiometry N is the number of molecules, sites or subunits per partner or assembly.

B1: T2i88-8-pf self-assembling protein nanoparticle (SAPN) chain (designed binder)
chain: MGHHHHHHASWKWDGGLVPRGSWQTWNAKWDQWSNDWNAWRSDWQAWKDDWAYWTLTWKYGELYSKLAELERRLEELAKFVAAWTLKAAAVDLELAALRRRLEELARGGSGANANPNANPNANPNANP
With B1, the “stoichiometry N” value in data set [1] was 195 peptide chains per nanoparticle and ~180 peptide chains per particle; in data set [2], approximately 180 chains per nanoparticle.
